Our source for the Kd and stoichiometry N values is paper doi:10.1101/2023.01.07.523072.

For the test, the target named is RPN13 pru domain (Arabidopsis thaliana) (UniProt O48726). As to the kind of experiment: ITC. (Isothermal titration calorimetry measures the heat released or taken up as one component is titrated into another.)

The term Kd denotes the equilibrium constant for the complex coming apart. A lower Kd goes with a tighter complex. One may read the stoichiometry N as the number of molecules, sites or subunits per partner or assembly.

UniProt O48726, sequence (O48726 9-121): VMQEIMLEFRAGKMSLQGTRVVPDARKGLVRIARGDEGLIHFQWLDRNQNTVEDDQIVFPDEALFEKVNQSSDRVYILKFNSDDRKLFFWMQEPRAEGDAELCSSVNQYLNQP

Substance “TTOP UBL domain (from UniProt F4K1H0 1-879) (domain or fragment)” gave an equilibrium dissociation constant (Kd) of 29 µM and a stoichiometry N of 1.
